How the values were obtained:
[1] = target: human PUM1 PUF domain wild type (hPUF WT) (UniProt Q14671 SEQ:1-349); test: EMSA; reference; 4 C, 100 mM NaCl, 1 mM EDTA, pH 7.5; conditions: label: Alexa680 at 5' and 3'
Description: (§1) Each purified protein was diluted to a desired concentration with Binding Buffer, mixed with a binding buffer and Ribonuclease Inhibitor, Cloned (Invitrogen), and then, mixed with the RNA probe at a final concentration of 0.5 nM. […] A binding reaction was performed at 4° C. for 30 min. Subsequently, the solution was gently mixed by pipetting. A binding reaction was performed again at 4° C. for […].
(§2) The solution obtained after the binding reaction was applied to 6% a non-denaturing polyacrylamide gel, followed by electrophoresis at 4° C. and 200 V. When the electrophoresis marker (2 μL of 6×Dye+10 μL of 1×binding buffer) moved by 0.5 cm, the voltage was changed to 100 V, and electrophoresis was continuously performed until the electrophoresis marker moved by 3 cm. Finally, RNA was detected with Odyssey.

hPUF_MT(R3→R5, R4→R6) = target: T1, hPUF_MT(R3→R5, R4→R6); test: EMSA; binds U (R2 position) >> C; conditions: label: Alexa680 at 5' and 3'
T1 chain: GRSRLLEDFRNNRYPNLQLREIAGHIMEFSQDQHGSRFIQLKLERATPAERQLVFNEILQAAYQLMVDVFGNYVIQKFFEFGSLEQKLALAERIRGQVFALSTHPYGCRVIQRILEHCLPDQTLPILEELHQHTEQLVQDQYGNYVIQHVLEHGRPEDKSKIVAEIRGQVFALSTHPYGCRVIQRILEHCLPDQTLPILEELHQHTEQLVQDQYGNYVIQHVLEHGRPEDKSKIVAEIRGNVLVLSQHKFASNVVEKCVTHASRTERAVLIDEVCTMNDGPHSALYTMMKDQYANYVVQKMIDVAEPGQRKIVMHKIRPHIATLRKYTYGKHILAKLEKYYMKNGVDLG
Description: as §1, §2

hPUF_MT(905A) = hPUF_MT(905A) (UniProt Q14671 SEQ:1-349, F905A); test: EMSA; not significantly affected; conditions: tags: MBP; label: Alexa680 at 5' and 3'
Description: (§3) An RNA probe (OTS-1511) containing a target sequence fluorescence-labeled with Alexa680 at both ends thereof was synthesized.
as §1

hPUF_MT(R4→R6) = target: T2, hPUF_MT(R4→R6) (UniProt Q14671 SEQ:1-349); test: EMSA; comparable to WT; conditions: label: Alexa680 at 5' and 3'
T2 chain: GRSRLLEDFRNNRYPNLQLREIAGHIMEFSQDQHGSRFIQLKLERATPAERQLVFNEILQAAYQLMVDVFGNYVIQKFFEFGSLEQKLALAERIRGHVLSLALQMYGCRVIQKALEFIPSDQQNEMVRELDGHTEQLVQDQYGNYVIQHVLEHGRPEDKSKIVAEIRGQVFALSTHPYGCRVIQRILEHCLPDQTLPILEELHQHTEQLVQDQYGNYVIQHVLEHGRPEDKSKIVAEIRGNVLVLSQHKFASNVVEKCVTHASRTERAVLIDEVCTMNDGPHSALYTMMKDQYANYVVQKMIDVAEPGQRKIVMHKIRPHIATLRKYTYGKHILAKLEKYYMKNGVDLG
Description: as §3, §1

hPUF_MT(R3→R5) = target: T3, hPUF_MT(R3→R5) (UniProt Q14671 SEQ:1-349); test: EMSA; comparable to WT; conditions: label: Alexa680 at 5' and 3'
T3 chain: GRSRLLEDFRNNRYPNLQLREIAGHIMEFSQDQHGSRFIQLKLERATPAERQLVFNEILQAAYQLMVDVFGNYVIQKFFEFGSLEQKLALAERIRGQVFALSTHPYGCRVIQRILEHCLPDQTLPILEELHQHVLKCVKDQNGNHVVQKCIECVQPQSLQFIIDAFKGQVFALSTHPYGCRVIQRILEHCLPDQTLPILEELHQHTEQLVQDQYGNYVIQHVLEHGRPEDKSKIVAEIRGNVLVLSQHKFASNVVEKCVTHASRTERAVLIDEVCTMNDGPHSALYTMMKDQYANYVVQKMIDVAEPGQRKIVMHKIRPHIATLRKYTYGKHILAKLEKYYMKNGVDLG
Description: as §3, §1

Measured: binding result

CCAGAAUUGUAUAUAUUCG (ssRNA) [OTS-1511]
binds: all assays above
